Experimental findings from patent US20120201794A1 are described below.

Assay [1] deals with C46 protein (membrane anchored fusion inhibitor derived from the C-terminal heptad repeat of HIV gp41 fused with a human immunoglobulin hinge region and a CD34 transmembrane domain) (HIV gp41 heptad repeat fused to human immunoglobulin hinge and CD34 transmembrane domain). The assay is described as follows: flow cytometry, 2F5 staining of Molt4/CCR5 cells transduced with the C46 lentiviral construct (untransduced background 344.6).

Assay [2] shares this target. The experiment in a line: flow cytometry, 2F5 staining of Molt4/CCR5 cells transduced with the sh5/C46 lentiviral construct (untransduced background 344.6).

Regarding 2F5 antibody, the MFI in assay [1] is 1450; in assay [2], 1170.
